Reference: the RNAGym collection of RNA variant scans (doi:10.1093/molbev/msab373)

B1: Azoarcus group I ribozyme (parent)
chain: GUGCCUUGCGCCGGGAAACCACGCAAGGGAUGGUGUCAAAUUCGGCGAAACCUAAGCGCCCGCCCGGGCGUAUGGCAACGCCGAGCCAAGCUUCGGCGCCUGCGCCGAUGAAGGUGUAGAGACUAGACGGCACCCACCUAAGGCAAACGCUAUGGUGAAGGCAUAGUCCAGGGAGUGGCGAAAGUCACACAAACCGG

Variants of: B1
Assay: reverse-splicing fitness (ratio to wild type); higher = more active; in vitro selection; Mg2+ level not given
Outline: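 An in vitro group I ribozyme library with randomized positions was T7-transcribed and gel-purified. In triplicate, 10 pmol RNA in EPPS pH 7.5 was reacted with 50 pmoles of a 30-nt RNA substrate for 1 h at 37 °C across several added MgCl2 levels (1–48 mM), then stopped with EDTA. Products were reverse transcribed from a substrate-complementary primer, PCR-amplified and sequenced (HiSeq 4000). Fitness is a variant's read proportion after selection over that before, normalised to wild type.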

First: C82U A111G A120C C150U C169U U176C
Second: C82U A111G A120C C150U C169U U176G
The reverse-splicing fitness of the first is higher: 0.0151 for the first, 0.0054 for the second.

Going from C82U A111G A120C C150U U176A to C82U A111G A120C C150U U176C, the reverse-splicing fitness rises from 0.0148 to 0.0218.

Going from C82U A111G A120C C150U U176G to C82U A111G A120C C169A, the reverse-splicing fitness rises from 0.00651 to 0.00806.

Compared with C82U A111G A120C C169A U176A, C82U A111G A120C C169A U176C is lower in reverse-splicing fitness: 0.014 for the first, 0.0132 for the second.

Compared with C82U A111G A120C C169A U176G, C82U A111G A120C C169G is higher in reverse-splicing fitness: 0.00425 for the first, 0.00773 for the second.

Compared with C82U A111G A120C C169G U176A, C82U A111G A120C C169G U176C is lower in reverse-splicing fitness: 0.0168 for the first, 0.0156 for the second.

Compared with C82U A111G A120C C169G U176G, C82U A111G A120C C169U is higher in reverse-splicing fitness: 0.00426 for the first, 0.0118 for the second.

Going from C82U A111G A120C C169U U176A to C82U A111G A120C C169U U176C, the reverse-splicing fitness falls from 0.0149 to 0.014.

First: C82U A111G A120C C169U U176G
Second: C82U A111G A120C U176A
The reverse-splicing fitness of the first is lower: 0.00349 for the first, 0.0204 for the second.

Compared with C82U A111G A120C U176C, C82U A111G A120C U176G is lower in reverse-splicing fitness: 0.0288 for the first, 0.00542 for the second.

First: C82U A111G A120G
Second: C82U A111G A120G A145C
The reverse-splicing fitness of the first is higher: 0.0173 for the first, 0.0135 for the second.

Compared with C82U A111G A120G A145C C150A, C82U A111G A120G A145C C150A C169A is higher in reverse-splicing fitness: 0.00658 for the first, 0.00777 for the second.

First: C82U A111G A120G A145C C150A C169A U176A
Second: C82U A111G A120G A145C C150A C169A U176C
The reverse-splicing fitness of the first is higher: 0.0114 for the first, 0.00481 for the second.

Going from C82U A111G A120G A145C C150A C169A U176G to C82U A111G A120G A145C C150A C169G, the reverse-splicing fitness rises from 0.00425 to 0.00737.

First: C82U A111G A120G A145C C150A C169G U176A
Second: C82U A111G A120G A145C C150A C169G U176C
The reverse-splicing fitness of the first is higher: 0.023 for the first, 0.015 for the second.

Going from C82U A111G A120G A145C C150A C169G U176G to C82U A111G A120G A145C C150A C169U, the reverse-splicing fitness rises from 0.00465 to 0.00634.

Going from C82U A111G A120G A145C C150A C169U U176A to C82U A111G A120G A145C C150A C169U U176C, the reverse-splicing fitness falls from 0.0192 to 0.00907.

First: C82U A111G A120G A145C C150A C169U U176G
Second: C82U A111G A120G A145C C150A U176A
The reverse-splicing fitness of the first is lower: 0.00373 for the first, 0.00929 for the second.

First: C82U A111G A120G A145C C150A U176C
Second: C82U A111G A120G A145C C150A U176G
The reverse-splicing fitness of the first is higher: 0.00818 for the first, 0.00354 for the second.

Going from C82U A111G A120G A145C C150G to C82U A111G A120G A145C C150G C169A, the reverse-splicing fitness rises from 0.00632 to 0.00854.

First: C82U A111G A120G A145C C150G C169A U176A
Second: C82U A111G A120G A145C C150G C169A U176C
The reverse-splicing fitness of the first is higher: 0.00781 for the first, 0.00579 for the second.
